According to paper PMC4987623, “The tetrameric MotA complex as the core of the flagellar motor stator from hyperthermophilic bacterium” (Scientific Reports, 2016):

How the values were obtained:
[1] = molecular target: the molecule itself; test: cross-linking; about 0.5 mg/mL purified His-MotA in PN buffer (50 mM NaPO4 pH 7.0, 150 mM NaCl) with 0.1% (w/v) DM, 20 °C, 0-5 mM BS3 for 5 min; SDS-PAGE, CBB staining and immunoblot
[2] = molecular target: the molecule itself; test: negative-stain electron microscopy, single particle 3D reconstruction; MotA complex from the 210 kDa gel filtration fraction, stained with 2% uranyl acetate; 2-fold rotational symmetry applied; 25 Å resolution
[3] = molecular target: the molecule itself; test: cross-linking; about 0.5 mg/mL purified His-MotA in PN buffer (50 mM NaPO4 pH 7.0, 150 mM NaCl) with 0.1% (w/v) DM, 20 °C, 20 mM EDC for 0-120 min; SDS-PAGE, CBB staining and immunoblot

B1: MotA from Aquifex aeolicus with N-terminal histidine tag (His-MotA^Aa) (natural protein, UniProt O67122 1-254, looked up)
chain: MDVGTIIGIIAAFLLILISILIGGSITAFINVPSIFIVVGGGMAAAMGAFPLKDFIRGVLAIKKAFLWKPPDLNDVIETIGEIASKVRKEGILALEGDIELYYQKDPLLGDMIRMLVDGIDINDIKATAEMALAQLDEKMSTEVAVWEKLADLFPAFGMIGTLIGLIQMLRNLNDPSALGPGMAVALITTLYGAILANAFAIPVANKLKKAKDMEVLVKTIYIEAIEKIQKGENPNVVKQEAAIMLGVELPEEV
notes: MotA, flagellar motor stator protein of Aquifex aeolicus; full-length motA gene cloned into pColdI; four transmembrane helices, cytoplasmic residues 54-149 and 205-254; Expressed from pColdI-motA^Aa without MotB; 28 kDa with the tag; source: E. coli BL21-CodonPlus(DE3)-RIPL, membrane fraction solubilized in detergent, purified (Ni-NTA agarose, gel filtration); not shown: His6, N-terminal, kept
- stoichiometry N [1]: 2
- stoichiometry N [2]: 4
- stoichiometry N [3]: ≥ 4
